Each block holds one binder with its values, some of them ahead of it.
Legend:
[1] = target: T1, acid β-glucosidase (GCase), Velaglucerase alfa (human, UniProt P04062 40-536, Chain 1 is a glycoprotein with N-linked, mannose-terminated oligosaccharides, which the letters do not carry.); assay: microscale thermophoresis (MST); unlabelled GCase titrated against NBD-PS labelled SapC-DOPS, CP buffer pH 5.6
T1 construct: also called free GCase; human GCase
T1 sequence: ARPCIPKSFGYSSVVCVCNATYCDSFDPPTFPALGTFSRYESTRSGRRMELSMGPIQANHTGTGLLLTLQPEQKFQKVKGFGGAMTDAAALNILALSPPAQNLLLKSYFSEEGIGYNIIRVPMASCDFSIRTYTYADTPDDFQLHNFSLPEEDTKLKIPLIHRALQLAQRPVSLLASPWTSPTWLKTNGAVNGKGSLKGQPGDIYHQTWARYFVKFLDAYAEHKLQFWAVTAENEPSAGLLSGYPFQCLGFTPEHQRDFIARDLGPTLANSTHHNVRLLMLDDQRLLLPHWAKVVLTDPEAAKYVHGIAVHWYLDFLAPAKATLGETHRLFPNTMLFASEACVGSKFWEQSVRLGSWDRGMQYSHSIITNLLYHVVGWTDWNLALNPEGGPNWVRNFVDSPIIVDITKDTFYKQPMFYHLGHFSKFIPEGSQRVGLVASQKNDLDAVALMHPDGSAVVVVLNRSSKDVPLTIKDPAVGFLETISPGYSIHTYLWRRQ
Protocol: (§1) Binding was determined by measuring Kd using a Microscale Thermophoresis (MST) assay system on a Monolith NT.115. MicroScale NanoTemper. Temperature related intensity change (TRIC) together with thermophoresis contribution to the variation of fluorescence intensity was determined. NBD-PS [2-(4-nitro-2,1,3-benzoxadiazol-7-yl)aminoethyl-phophatidylserine (Avanti Polar Lipids Inc., Alabaster, Ala.) was used to fluorescently label DOPS. DOPS in chloroform was mixed with NBD-PS in DMSO at the molar ratio of 3:1. The organic solvent was evaporated under nitrogen gas. Upon suspension in CP buffer (0.1 M Citrate Phosphate buffer, pH 5.6), the mixture solutions were bath sonicated for 30 mins at 4° C. This preparation was tested with SapC or SapB to measure the Kd for binding to DOPS. […]
(§2) The final concentration of the reaction mixtures ranged from GCase/SapC-DOPS-NBD of 1562 nM/7500 nM for the 1st point to 0.024 nM/7500 nM for the 16th point (FIG. 16, Table 3). […] The thermophoresis time was 30 secs with dual reading setting (LED: 20%/40%; MST: 40%/50%). […] The raw data were analyzed to determine Kd values and plotted using MO Affinity Analysis v2.1.3 software (NanoTemper, München, Germany).

[2] = target: T1, acid β-glucosidase (GCase), …; assay: microscale thermophoresis (MST), NBD-PS labelled vesicles, CP buffer pH 5.6
Protocol: as §1, §2

Kd [1]: 29.4 nM
B1: SapC-DOPS nanovesicles (saposin C with dioleoylphosphatidylserine) (other)
chain: SDVYCEVCEFLVKEVTKLIDNNKTEKEILDAFDKMCSKLPKSLSEECQEVVDTYGSSILSILLEEVSPELVCSMLHLCSG

binding result [2]: no binding
B2: saposin B (SapB)-DOPS (other, UniProt P07602 195-273, looked up)
chain: GDVCQDCIQMVTDIQTAVRTNSTFVQALVEHVKEECDRLGPGMADICKNYISQYSEIAIQMMMHMQPKEICALVGFCDE
notes: SapB formulated with DOPS at a 1:7 molar ratio and labelled with NBD-PS
